Experimental data published in patent US6867180B1, “Use of calreticulin and calreticulin fragments to inhibit endothelial cell growth and angiogenesis, and suppress tumor growth” (The United States of America as represented by the …, priority 1998, dated 2005).

Experiments:
[1] = tested on: human Burkitt lymphoma cells (CA46 cell line); assay: Prevention of human Burkitt lymphoma growth in athymic mice; format: in vivo, BALB/c athymic mice; conditions: 4×10^6 CA46 cells; 75 μg/day, 6 days/week, 42 days
Description: FIGS. 6A, 6B, 6C and 6D are graphs showing the inhibition of tumor growth by vasostatin (Seq. I.D. No. 4) and calreticulin (Seq. I.D. No. 3). Burkitt lymphoma cells (CA46 cell line, 1×10^7 cells) were inoculated subcutaneously (s.c.) into BALB/c athymic mice, 6 weeks of age. Beginning on the day of cell inoculation and continuing thereafter daily, 6 days/week, mice were inoculated s.c. with either control buffer (open symbols) or test protein (closed symbols). The results reflect the % mice with tumor as a function of time. A. 12 mice were inoculated with control purified GST protein (Seq. I.D. No. 2; 20 μg/day×14 days), and 13 mice were inoculated with purified GST-calreticulin ([…]; 60 μg/day×14 days). […]
BALB/c nu/nu female mice, 6 weeks of age (National Cancer Institute, Frederick, Md.) maintained in pathogen-limited conditions, received 400 rad (1 rad=0.01 Gy) total body irradiation and 24 hours later were injected s.c. in the right abdominal quadrant with 10^7 exponentially growing human Burkitt lymphoma cells (CA46 cell line; Sgadari et al., Proc. Natl. Acad. Sci. U.S.A. 93:13791-13796, 1996) in 0.2 ml PBS. […] A subcutaneous mass appearing at or proximal to the site of cell inoculation was considered a tumor when it measured at least 0.16 cm^2 in surface area and increased in size by at least 0.1 cm^2 over the following week. […]

[2] = tested on: bFGF-induced neovascularization; assay: Murine Matrigel assay of angiogenesis in vivo; set-up: species or system BALB/c nude mice; conditions: Exp. 4; concentration not given; bFGF 150 ng/ml
Experimental: The murine Matrigel assay (Passaniti et al., Lab. Invest. 67:519-528, 1992) was employed to evaluate the effects of calreticulin and calreticulin fragments on angiogenesis in vivo. The Matrigel assay was performed as described by Angiolillo et al. (J. Exp. Med. 182:155-162, 1995). Matrigel, a crude extract of the Englebreth-Holm-Swarm tumor, was obtained from Collaborative Biomedical Products, Becton Dickinson Labware, Bedford, Mass. An aliquot (0.5 ml) of Matrigel alone or with desired additives was injected subcutaneously (s.c.) into the mid abdominal region of female BALB/c nude mice, 6-8 weeks old. Five mice were injected with each mixture. After 5-7 days, the animals were sacrificed, Matrigel plugs were removed, fixed in 10% neutral buffered formalin solution (Sigma), and embedded in paraffin. Tissues were sectioned (5μ thickness), and slides stained with Masson's trichrome. Quantitative analysis of angiogenesis in Matrigel plugs utilized a computerized semi-automated digital analyzer (Optomax, 40-10 System, Hollis, N.H.). The instrument was adjusted to evaluate a circular area measuring […] of Matrigel, and within this area, to measure the area occupied by cells. For each plug, 12-15 distinct fields were evaluated. The fields were randomly selected from each plug, and the operator was blind to the experimental design. The average area occupied by cells/1.26×10^5 […] Matrigel field was calculated. Results are expressed as the mean area occupied by cells/Matrigel field.
Matrigel plugs were fixed in 10% neutral buffered formalin solution (Sigma), embedded in paraffin, sectioned at 4 μm, and stained with Masson's trichrome by standard methods.

[3] = tested on: Fetal bovine heart endothelial cells
Experimental: Fetal bovine heart endothelial cells (American Type Culture Collection, ATCC, Manassas, Va.) were grown through passage 12 in DMEM culture medium (BioWhittaker, Walkersville, Md.) containing 10% heat inactivated fetal bovine serum (BioWhittaker), 100 ng/ml bFGF (R&D Systems, Minneapolis, Minn.), and 5 μg/ml gentamicin (Sigma). For proliferation assays, cells were trypsinized (Trypsin/EDTA, Gibco BRL), washed, suspended in culture medium (DMEM containing 10% heat inactivated fetal bovine serum and 5 μg/ml gentamicin), plated (800 cells/well in 0.2 ml culture medium) in triplicate onto 96 well plates, and incubated for 5 days.

[4] = tested on: peptides KLGFFKR, KAFFKR and KVFFKR coupled to CNBr-activated Sepharose; assay: Affinity column binding to integrin / steroid receptor motif peptides; conditions: elution with 20 mM EDTA
Description: FIG. 18 is a Western blot analysis of fractions obtained through affinity purification over a column containing KXaa1FFXaa2R (Seq. I.D. No. 11) and KXaa1GFFKR (Seq. I.D. No. 10). Purified supernatants from the VDS-0 cell line containing full length calreticulin and N-terminal fragments of calreticulin were affinity purified over a mixture of peptides KLGFFKR (Seq. I.D. No. 13), KAFFKR (Seq. I.D. No. 33) and KVFFKR (Seq. I.D. No. 32) coupled to CNBr-activated Sepharose. Starting material (lane 1), unbound material (lanes 2, 3) and bound material (lanes 4, 5) were separated by SDS-PAGE, transferred to nitrocellulose, and subsequently stained with a rabbit antiserum against human calreticulin.
To this end, purified preparations of the VDS-O cell line containing full length calreticulin (Seq. I.D. No. 3) as well as N-terminal calreticulin fragments were prepared and tested to determine how these components were retained over an affinity column. To prepare the affinity column, three peptides were synthesized ([…], Seq. I.D. 13; KAFFKR, Seq. I.D. No. 33; and KVFFKR, Seq. I.D. No. 32), purified, and coupled to CNBr-activated Sepharose 4B (Pharmacia). First, the ability of calreticulin, purified from the culture supernatant of the lymphoblastoid cell line VDS-O, to selectively bind to the column and be eluted by a buffer solution containing 20 mM EDTA and 100 mM NaCl, was verified. […]

[5] = tested on: human Burkitt lymphoma cell line CA46; assay: Combination of vasostatin and IL-12 on human Burkitt lymphoma in nude mice; format: in vivo, BALB/c nude mice; conditions: both experiments; MBP-vasostatin 100 μg/day, mIL-12 100-200 ng/day s.c.
Experimental: Athymic BALB/c nude mice received 400 rad total body irradiation and 24 hours later were inoculated (4×10^6 cell/mouse) with the human Burkitt lymphoma cell line CA46. A and B. 5 days after cell inoculation the established tumors were treated with daily s.c. inoculations (6 days/week) of either formulation buffer alone (closed circles), MBP-vasostatin alone (Seq. I.D. No. 4; 100 μg/day; open squares), mIL-12 alone (200 ng/day for 8 days followed by 100 ng/day; open circles), or the combination of MBP-vasostatin (Seq. I.D. No. 4) and mIL-12 (same dose used as single agents; open triangles). All mice were sacrificed after 15 days of treatment. C and D. 1 day after cell inoculation, s.c. treatment with MBP-vasostatin (Seq. I.D. No. 4; 100 μg/day; 6 days/week) or formulation buffer was started; s.c. treatment with IL-12 (100 ng/mouse; 6 days/week) was started 2 days later in mice that had received buffer alone or MBP-vasostatin (Seq. I.D. No. 4). Therefore, four groups of mice were tested: Mice receiving buffer alone (closed circles); MBP-vasostatin alone (open squares); IL-12 alone (open circles); and MBP-vasostatin plus IL-12 (open triangles). The mice received 7 days treatment with MBP-vasostatin (Seq. I.D. No. 4) and 5 days treatment with IL-12, and were observed untreated for 14 days at which time all mice were sacrificed. […]

B1: MBP-120-180 calreticulin: recombinant 61 amino acid calreticulin fragment, amino acids 120-180 (Seq. I.D. No. 5), fused to MBP (protein)
chain: CGPGTKKVHVIFNYKGKNVLINKDIRCKDDEFTHLYTLIVRPDNTYEVKIDNSQVESGSLE
modifications: left off: large carriers
With B1 the “rate of Burkitt tumor growth compared to controls” value [1] was “significantly reduced”, the “Inhibition (%)” value [2] was 70% and the “Mean Surface Area Occupied by Cells” value [2] was 2,458 mm^2/1.26 × 10^5 mm^2. The “inhibition of fetal bovine heart endothelial cell proliferation” value ([3]; 0.5 μg/ml, bFGF-induced) was 65%, the “endothelial cell growth inhibitory activity in vitro, side-by-side comparison on a molar basis” value ([3]; 0.4-32 nM, bFGF 15 ng/ml, 5 days) was “similar” and the “binding to peptide affinity column” value [4] was “failed to bind”.

B2: mIL-12: murine IL-12 (Interleukin 12) (protein, UniProt P43431 23-215; P43432 23-335, looked up)
Interleukin-12 subunit alpha: RVIPVSGPARCLSQSRNLLKTTDDMVKTAREKLKHYSCTAEDIDHEDITRDQTSTLKTCLPLELHKNESCLATRETSSTTRGSCLPPQKTSLMMTLCLGSIYEDLKMYQTEFQAINAALQNHNHQQIILDKGMLVAIDELMQSLNHNGETLRQKPPVGEADPYRVKMKLCILLHAFSTRVVTINRVMGYLSSA
Interleukin-12 subunit beta: MWELEKDVYVVEVDWTPDAPGETVNLTCDTPEEDDITWTSDQRHGVIGSGKTLTITVKEFLDAGQYTCHKGGETLSHSHLLLHKKENGIWSTEILKNFKNKTFLKCEAPNYSGRFTCSWLVQRNMDLKFNIKSSSSSPDSRAVTCGMASLSAEKVTLDQRDYEKYSVSCQEDVTCPTAEETLPIELALEARQQNKYENYSTSFFIRDIIKPDPPKNLQMKPLKNSQVEVSWEYPDSWSTPHSYFSLKFFVRIQRKKEKMKETEEGCNQKGAFLVEKTSTEVQCKGGNVCVQAQDRYYNSSCSKWACVPCRVRS
With B2 the “rate of tumor growth and mean weight of tumors compared with formulation buffer” value [5] was “reduced”.
